Test results published in patent publication US20110008351A1 (UNIVERSITE LIBRE DE BRUXELLES, published 2011).

Target: T1, purified human properdin (human, UniProt P27918 28-469)
T1 construct: also called factor P
Test: ELISA, properdin coated, normalized 293T supernatants, anti-V5 detection

T1 sequence (P27918 28-469 limits assumed): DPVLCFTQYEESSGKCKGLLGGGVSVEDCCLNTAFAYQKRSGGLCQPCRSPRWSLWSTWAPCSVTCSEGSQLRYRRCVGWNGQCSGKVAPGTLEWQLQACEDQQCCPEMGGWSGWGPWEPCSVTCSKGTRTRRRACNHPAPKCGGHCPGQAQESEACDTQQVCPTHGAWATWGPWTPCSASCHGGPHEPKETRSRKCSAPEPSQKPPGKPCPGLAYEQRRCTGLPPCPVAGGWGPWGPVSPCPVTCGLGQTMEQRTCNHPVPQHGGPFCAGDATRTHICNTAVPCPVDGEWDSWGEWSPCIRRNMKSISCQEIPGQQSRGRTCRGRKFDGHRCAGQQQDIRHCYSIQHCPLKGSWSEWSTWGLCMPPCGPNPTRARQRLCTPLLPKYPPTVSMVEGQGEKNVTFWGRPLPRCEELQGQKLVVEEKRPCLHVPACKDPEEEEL

B1: recombinant Rhipicephalus appendiculatus histamine-binding protein 2 (RaHBP2) (other, UniProt O77421 20-190, looked up, not shown: small tags and cut ends)
chain: NQPDWADEAANGAHQDAWKSLKADVENVYYMVKATYKNDPVWGNDFTCVGVMANDVNEDEKSIQAEFLFMNNADTNMQFATEKVTAVKMYGYNRENAFRYETEDGQVFTDVIAYSDDNCDVIYVPGTDGNEEGYELWTTDYDNIPANCLNKFNEYAVGRETRDVFTSACLE
notes: Negative control, supernatant of transfected 293T cells
**Q.** Does B1 bind?
**A.** no binding
